Measured values as given in PMC4521584, “MutS/MutL crystal structure reveals that the MutS sliding clamp loads MutL onto DNA” (eLife, 2015).

Target: T1, WT MutS, full length (E. coli, UniProt P23909 1-853)
T1 construct: MutS, E. coli, wild type; also called MutS sliding clamp; source: mutS gene in vector pET-3D; purified as described previously
T1 sequence (looked up): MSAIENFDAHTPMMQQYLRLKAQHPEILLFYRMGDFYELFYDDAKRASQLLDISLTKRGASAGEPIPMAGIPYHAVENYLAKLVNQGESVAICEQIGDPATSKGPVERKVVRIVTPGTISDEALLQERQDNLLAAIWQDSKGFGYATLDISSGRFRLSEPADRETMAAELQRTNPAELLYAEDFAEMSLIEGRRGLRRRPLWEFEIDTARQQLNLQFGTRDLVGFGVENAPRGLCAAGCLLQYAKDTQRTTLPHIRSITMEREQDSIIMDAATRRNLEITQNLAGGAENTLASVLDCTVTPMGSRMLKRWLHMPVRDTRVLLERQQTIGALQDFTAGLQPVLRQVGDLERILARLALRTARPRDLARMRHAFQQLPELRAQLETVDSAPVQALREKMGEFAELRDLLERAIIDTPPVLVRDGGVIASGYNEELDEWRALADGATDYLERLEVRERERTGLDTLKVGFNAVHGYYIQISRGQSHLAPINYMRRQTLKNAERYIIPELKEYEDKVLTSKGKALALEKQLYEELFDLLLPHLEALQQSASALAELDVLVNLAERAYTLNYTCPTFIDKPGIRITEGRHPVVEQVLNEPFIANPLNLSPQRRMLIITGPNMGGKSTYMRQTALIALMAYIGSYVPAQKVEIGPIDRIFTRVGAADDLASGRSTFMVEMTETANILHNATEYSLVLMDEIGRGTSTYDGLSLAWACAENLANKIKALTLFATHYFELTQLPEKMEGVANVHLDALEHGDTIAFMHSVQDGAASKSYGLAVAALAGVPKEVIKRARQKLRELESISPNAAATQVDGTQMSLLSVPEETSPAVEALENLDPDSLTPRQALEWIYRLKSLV
Experiment: SPR; two-step: 200 nM MutS with 1 mM ATP trapped as sliding clamps on immobilised, end-blocked 100-bp G:T DNA, then MutL (varying concentrations, 1 mM ATP) injected 120 s; MutS-only signal subtracted; 25 mM Hepes pH 7.5, 150 mM KCl, 5 mM MgCl2, 1 mM DTT, 0.05% TWEEN-20, 20% glycerol; not strictly affinity curves
Conditions: both partners purified

- binding result: binds
B1: WT His6-MutL, full length (natural protein, E. coli, UniProt P23367 1-615, looked up)
chain: MPIQVLPPQLANQIAAGEVVERPASVVKELVENSLDAGATRIDIDIERGGAKLIRIRDNGCGIKKDELALALARHATSKIASLDDLEAIISLGFRGEALASISSVSRLTLTSRTAEQQEAWQAYAEGRDMNVTVKPAAHPVGTTLEVLDLFYNTPARRKFLRTEKTEFNHIDEIIRRIALARFDVTINLSHNGKIVRQYRAVPEGGQKERRLGAICGTAFLEQALAIEWQHGDLTLRGWVADPNHTTPALAEIQYCYVNGRMMRDRLINHAIRQACEDKLGADQQPAFVLYLEIDPHQVDVNVHPAKHEVRFHQSRLVHDFIYQGVLSVLQQQLETPLPLDDEPQPAPRSIPENRVAAGRNHFAEPAAREPVAPRYTPAPASGSRPAAPWPNAQPGYQKQQGEVYRQLLQTPAPMQKLKAPEPQEPALAANSQSFGRVLTIVHSDCALLERDGNISLLSLPVAERWLRQAQLTPGEAPVCAQPLLIPLRLKVSAEEKSALEKAQSALAELGIDFQSDAQHVTIRAVPLPLRQQNLQILIPELIGYLAKQSVFEPGNIAQWIARNLMSEHAQWSMAQAITLLADVERLCPQLVKTPPGGLLQSVDLHPAIKALKDE
notes: MutL, E. coli, wild type; also called WT MutL; WT His-MutL; source: mutL gene in plasmid pTX418; purified as described previously
